Experimental data reported in patent US20230158141A1.

Assays:
IL2Rb = biological target: T1, IL2Rb (UniProt P14784); test: IP and ELISA; Cys mutant, no arm
T1 sequence (looked up): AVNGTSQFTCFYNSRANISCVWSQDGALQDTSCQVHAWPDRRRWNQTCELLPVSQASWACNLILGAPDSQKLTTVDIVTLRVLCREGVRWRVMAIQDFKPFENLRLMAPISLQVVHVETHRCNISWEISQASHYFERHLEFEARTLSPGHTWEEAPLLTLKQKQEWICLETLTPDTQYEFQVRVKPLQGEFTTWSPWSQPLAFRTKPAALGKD

IL2 receptor gamma = biological target: T2, IL2 receptor gamma (UniProt P31785); test: IP and ELISA; S3 on the Cys
T2 sequence (looked up): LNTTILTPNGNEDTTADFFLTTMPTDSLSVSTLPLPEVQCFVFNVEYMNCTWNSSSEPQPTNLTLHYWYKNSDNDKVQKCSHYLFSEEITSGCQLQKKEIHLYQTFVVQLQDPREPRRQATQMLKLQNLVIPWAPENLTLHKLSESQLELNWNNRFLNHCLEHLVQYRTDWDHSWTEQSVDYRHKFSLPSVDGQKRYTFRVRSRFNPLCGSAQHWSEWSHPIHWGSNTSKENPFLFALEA

| binding activity after mutation, % of native IL2 (IL2Rb) | binding activity after conjugating to S3, % of native IL2 (IL2 receptor gamma) | Substance |
| --- | --- | --- |
| 27% |  | IL2-Leu80Cys (from UniProt P60568 21-153) (ligand) |
|  | 89.7% | IL2-Thr51Cys (from UniProt P60568 21-153) (ligand) |
